The text below walks through data of the supplement of paper PMC10567573.

B1: SPATS1 (parent)
chain: YPEQSKGFHKAGSMLPPVNFSIVP
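Note: lentivirally expressed fusions sorted by FACS into six bins by GFP to DsRed ratio, PSI derived from sequencing read proportions per bin multiplied by bin number.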

The variants in the series derive from B1. The series can be described thus: protein stability index of a GFP-peptide fusion (GPS, HEK-293T) (PSI 1-6); higher = more stable. The note with it: c terminus: a fixed tail appended.
YPEQSKGFHKAGSMLWPVNFSIVP [P16W]: the protein stability index came out at 1.96. Regarding YPEQSKGFHKAGSMLCPVNFSIVP [P16C], the protein stability index was 1.97. For the variant YPEQSKGFHKAGSMLQPVNFSIVP [P16Q], the protein stability index worked out at 2.02.

For the variant YPEQSKGFHKAGSMLHPVNFSIVP [P16H], the protein stability index is 1.44. As for YPEQSKGFHKAGSMLKPVNFSIVP [P16K], the protein stability index worked out at 2.01. Turning to YPEQSKGFHKAGSMLDPVNFSIVP [P16D], the protein stability index is 1.94.

As to YPEQSKGFHKAGSMLSPVNFSIVP [P16S], the protein stability index worked out at 1.43. As to YPEQSKGFHKAGSMLGPVNFSIVP [P16G], the protein stability index is 1.65. For the variant YPEQSKGFHKAGSMLRPVNFSIVP [P16R], the protein stability index turned out to be 1.99. Turning to YPEQSKGFHKAGSMLPPVNFSINP [V23N], the protein stability index came to 2.35.

YPEQSKGFHKAGSMLPPVNFSIQP [V23Q]: the protein stability index worked out at 2.26. Consider YPEQSKGFHKAGSMLPPVNFSIHP [V23H], for which the protein stability index was found to be 1.43. Turning to YPEQSKGFHKAGSMLPPVNFSILP [V23L], the protein stability index is 1.94.

Consider YPEQSKGFHKAGSMLPPVNFSIIP [V23I], for which the protein stability index was determined as 2.47. With YPEQSKGFHKAGSMLPPVNFSIKP [V23K] the figure was 2.1; with YPEQSKGFHKAGSMLPPVNFSIMP [V23M], 1.93; with HPEQSKGFHKAGSMLPPVNFSIVP [Y1H], 3.18. With LPEQSKGFHKAGSMLPPVNFSIVP [Y1L] the figure was 2.66; with WPEQSKGFHKAGSMLPPVNFSIVP [Y1W], 2.69; with IPEQSKGFHKAGSMLPPVNFSIVP [Y1I], 2.77. As for PPEQSKGFHKAGSMLPPVNFSIVP [Y1P], the protein stability index was found to be 3.33. Take MPEQSKGFHKAGSMLPPVNFSIVP [Y1M]: the protein stability index stood at 2.97. As for YPEQSKGEHKAGSMLPPVNFSIVP [F8E], the protein stability index came out at 3.69.

Turning to YPEQSKGKHKAGSMLPPVNFSIVP [F8K], the protein stability index is 3.32. For YPEQSKGQHKAGSMLPPVNFSIVP [F8Q], the protein stability index came to 3.39.

Turning to YPEQSKGYHKAGSMLPPVNFSIVP [F8Y], the protein stability index came out at 1.97.

In the case of YPEQSKGSHKAGSMLPPVNFSIVP [F8S], the protein stability index came to 3.57. Take YPEQSKGPHKAGSMLPPVNFSIVP [F8P]: the protein stability index was 3.39. Then YPEQSKGFHKAGSYLPPVNFSIVP [M14Y], with 2; and YPEQSKGFHKAGSNLPPVNFSIVP [M14N], with 2.37; and YPEQSKGFHKAGSQLPPVNFSIVP [M14Q], with 2.08. With YPEQSKGFHKAGSHLPPVNFSIVP [M14H], the protein stability index was 1.87. On to YPEQSKGFHKAGSRLPPVNFSIVP [M14R], for which the protein stability index was found to be 2.8. Turning to YPEQSKGFHKAGSTLPPVNFSIVP [M14T], the protein stability index stood at 1.99. Regarding YPEQSKGFHKAGSALPPVNFSIVP [M14A], the protein stability index is 2.13. Then YPEQSKGFHKAGSSLPPVNFSIVP [M14S], with 2.17; and YPEQSKGFHKAGSCLPPVNFSIVP [M14C], with 2.25; and YPEQSKGFHKAGSWLPPVNFSIVP [M14W], with 1.91. Take YPEQSKGFHKAGSFLPPVNFSIVP [M14F]: the protein stability index is 2.28. YPEQSKGFHKAMSMLPPVNFSIVP [G12M]: the protein stability index turned out to be 1.7.

As to YPEQSKGFHKASSMLPPVNFSIVP [G12S], the protein stability index amounted to 1.84. Regarding YPEQSKGFHKAQSMLPPVNFSIVP [G12Q], the protein stability index turned out to be 1.66. Turning to YPEQDKGFHKAGSMLPPVNFSIVP [S5D], the protein stability index was 2.74. Consider YPEQPKGFHKAGSMLPPVNFSIVP [S5P], for which the protein stability index is 2.15. YPEQKKGFHKAGSMLPPVNFSIVP [S5K]: the protein stability index stood at 2.49. Then YPEQCKGFHKAGSMLPPVNFSIVP [S5C], with 1.96.

Take YPEQIKGFHKAGSMLPPVNFSIVP [S5I]: the protein stability index is 2.2. With YPEQLKGFHKAGSMLPPVNFSIVP [S5L], the protein stability index is 2.15. With YPEQGKGFHKAGSMLPPVNFSIVP [S5G], the protein stability index was found to be 2.52. On to YPEQRKGFHKAGSMLPPVNFSIVP [S5R], for which the protein stability index was 2.67.

Consider YPEQNKGFHKAGSMLPPVNFSIVP [S5N], for which the protein stability index was found to be 1.99. For YPEQSKGFHKAGSMLPPVDFSIVP [N19D], the protein stability index was 1.97. As to YPEQSKGFHKAGSMLPPVIFSIVP [N19I], the protein stability index worked out at 2.41. For the variant YPEQSKGFHKAGSMLPPVGFSIVP [N19G], the protein stability index was found to be 1.74. Regarding YPEQSKGFHKAGSMLPPVWFSIVP [N19W], the protein stability index came out at 2.18. Regarding YPEQSKGFHKAGSMLPPVYFSIVP [N19Y], the protein stability index worked out at 2.26. As for YPEQSKGFHKAGSMLPPVVFSIVP [N19V], the protein stability index amounted to 2.07. Then YPEQSKGFHKAGSMLPPVCFSIVP [N19C], with 1.56.

For YPEQSKGFHKAGSMLPPVPFSIVP [N19P], the protein stability index worked out at 1.88. On to YWEQSKGFHKAGSMLPPVNFSIVP [P2W], for which the protein stability index came out at 1.45. Then YSEQSKGFHKAGSMLPPVNFSIVP [P2S], with 2.43; and YHEQSKGFHKAGSMLPPVNFSIVP [P2H], with 2.04. In the case of YTEQSKGFHKAGSMLPPVNFSIVP [P2T], the protein stability index stood at 1.77. Take YQEQSKGFHKAGSMLPPVNFSIVP [P2Q]: the protein stability index turned out to be 2.51. As for YEEQSKGFHKAGSMLPPVNFSIVP [P2E], the protein stability index was 3.33. YLEQSKGFHKAGSMLPPVNFSIVP [P2L]: the protein stability index is 2.29. Then YAEQSKGFHKAGSMLPPVNFSIVP [P2A], with 1.85; and YFEQSKGFHKAGSMLPPVNFSIVP [P2F], with 1.77. Consider YGEQSKGFHKAGSMLPPVNFSIVP [P2G], for which the protein stability index amounted to 1.8. Then YPEQSKGFTKAGSMLPPVNFSIVP [H9T], with 2.16; and YPEQSKGFYKAGSMLPPVNFSIVP [H9Y], with 2.21. Turning to YPEQSKGFEKAGSMLPPVNFSIVP [H9E], the protein stability index turned out to be 2.81. For the variant YPEQSKGFRKAGSMLPPVNFSIVP [H9R], the protein stability index was determined as 2.42. For YPEQSKGFAKAGSMLPPVNFSIVP [H9A], the protein stability index is 2.1. Regarding YPEQSKGFWKAGSMLPPVNFSIVP [H9W], the protein stability index worked out at 3.39. On to YPEQSKGFGKAGSMLPPVNFSIVP [H9G], for which the protein stability index turned out to be 2.13.

For the variant YPEQSKGFHKAGSMLPFVNFSIVP [P17F], the protein stability index amounted to 1.58. On to YPEQSKGFHKAGSMLPHVNFSIVP [P17H], for which the protein stability index was found to be 2.75. Regarding YPEQSKGFHKAGSMLPTVNFSIVP [P17T], the protein stability index came to 1.59. Take YPEQSKGFHKAGSMLPMVNFSIVP [P17M]: the protein stability index is 1.42.

Consider YPEQSKGFHKAGSMLPRVNFSIVP [P17R], for which the protein stability index came to 1.61. Turning to YPEQSKGFHKAGSMLPQVNFSIVP [P17Q], the protein stability index worked out at 1.76. Then YPEQSKGFHKAGSMLPSVNFSIVP [P17S], with 1.94; and YPEQSKGFHKAGSMLPWVNFSIVP [P17W], with 2.59; and YPEVSKGFHKAGSMLPPVNFSIVP [Q4V], with 2.43. With YPEKSKGFHKAGSMLPPVNFSIVP [Q4K] the figure was 1.77. Take YPEMSKGFHKAGSMLPPVNFSIVP [Q4M]: the protein stability index was 1.39. Then YPEFSKGFHKAGSMLPPVNFSIVP [Q4F], with 3.4; and YPEPSKGFHKAGSMLPPVNFSIVP [Q4P], with 2.16; and YPERSKGFHKAGSMLPPVNFSIVP [Q4R], with 1.79. As for YPEDSKGFHKAGSMLPPVNFSIVP [Q4D], the protein stability index came out at 2.71. With YPECSKGFHKAGSMLPPVNFSIVP [Q4C], the protein stability index came to 1.8. Regarding YPEGSKGFHKAGSMLPPVNFSIVP [Q4G], the protein stability index stood at 1.89. As for YPEYSKGFHKAGSMLPPVNFSIVP [Q4Y], the protein stability index came to 2.56.
